We go through 1 molecule from PMC2734569, “Functional mapping of the fission yeast DNA polymerase δ B-subunit Cdc1 by site-directed and random pentapeptide insertion mutagenesis” (BMC Molecular Biology, 2009).

Assay in all cases: two-hybrid; LexA-Cdc1 bait (pBTM116 or pBTM116BN) with Gal4 activation domain-Cdc27 prey (pGAD2F-Cdc27) in S. cerevisiae CTY10-5d; ONPG liquid culture beta-galactosidase assay, mean of triplicates, as percent of wild-type Cdc1
Holding throughout (conditions): partners not purified

Test [1] deals with T1, Cdc1 (fission yeast DNA polymerase delta B-subunit), wild type (Schizosaccharomyces pombe, UniProt P87324 1-462).
T1 construct: DNA polymerase delta B-subunit Cdc1, S. pombe; cdc1+ cDNA on a 1.5 kb BamHI fragment from pBTM116-Cdc1, ORF 1386 bp; also called WT; LexA-Cdc1; source: yeast two-hybrid fusion, in S. cerevisiae CTY10-5d
T1 sequence (looked up): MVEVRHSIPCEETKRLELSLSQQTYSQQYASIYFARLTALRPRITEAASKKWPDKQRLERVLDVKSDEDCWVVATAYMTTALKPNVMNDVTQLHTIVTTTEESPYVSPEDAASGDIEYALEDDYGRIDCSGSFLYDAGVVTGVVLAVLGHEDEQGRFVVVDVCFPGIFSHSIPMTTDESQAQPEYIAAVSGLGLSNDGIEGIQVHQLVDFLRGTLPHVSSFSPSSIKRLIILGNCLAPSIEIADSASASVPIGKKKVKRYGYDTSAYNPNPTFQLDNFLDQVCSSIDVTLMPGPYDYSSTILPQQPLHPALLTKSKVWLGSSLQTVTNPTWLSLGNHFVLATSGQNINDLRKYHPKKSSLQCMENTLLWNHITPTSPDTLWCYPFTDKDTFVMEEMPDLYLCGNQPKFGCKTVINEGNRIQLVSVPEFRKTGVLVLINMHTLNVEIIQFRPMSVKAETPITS

The next test addresses T2, Cdc1-E1 (Schizosaccharomyces pombe, UniProt P87324 1-462, Ser-GlyValProGlnSer-Asp).
T2 construct: Cdc1, S. pombe, with a pentapeptide inserted after residue 66; source: yeast two-hybrid fusion, in S. cerevisiae CTY10-5d
T2 sequence (looked up): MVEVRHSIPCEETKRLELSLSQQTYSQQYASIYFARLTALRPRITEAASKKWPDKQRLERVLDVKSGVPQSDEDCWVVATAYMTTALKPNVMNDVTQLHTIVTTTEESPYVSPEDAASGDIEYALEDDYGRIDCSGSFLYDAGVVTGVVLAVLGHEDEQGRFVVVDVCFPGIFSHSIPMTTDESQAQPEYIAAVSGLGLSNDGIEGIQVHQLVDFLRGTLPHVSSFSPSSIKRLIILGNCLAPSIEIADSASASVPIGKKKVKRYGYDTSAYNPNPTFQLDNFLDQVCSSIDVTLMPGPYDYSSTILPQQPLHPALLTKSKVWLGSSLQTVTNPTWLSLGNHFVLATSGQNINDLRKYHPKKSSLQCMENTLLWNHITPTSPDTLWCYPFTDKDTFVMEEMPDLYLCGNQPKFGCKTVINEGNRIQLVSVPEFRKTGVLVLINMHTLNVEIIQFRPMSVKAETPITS

The next test addresses T3, Cdc1-A9 (Schizosaccharomyces pombe, UniProt P87324 1-462, Pro292Ala | Gly293Ala).
T3 construct: Cdc1, S. pombe, double point mutant (A1 and A2 combined); source: yeast two-hybrid fusion, in S. cerevisiae CTY10-5d
T3 sequence (looked up): T1 sequence (looked up) with P292A, G293A

A further test addresses T4, Cdc1-J3 (Schizosaccharomyces pombe, UniProt P87324 1-462, Leu-GlyValProLeuLeu-Asp).
T4 construct: Cdc1, S. pombe, with a pentapeptide inserted after residue 62; also called E3; E8; source: yeast two-hybrid fusion, in S. cerevisiae CTY10-5d
T4 sequence (looked up): T2 sequence (looked up) with D63G, K65P, S66L, G67L, V68D, P69V, Q70K

Where a chain is given by its changes, count along the chain named.

B1: Cdc27 (fission yeast DNA polymerase delta C-subunit) (natural protein, Schizosaccharomyces pombe, UniProt P30261 1-372, looked up)
chain: MEEWRNFLDIKVINESSLVTVDNLSLQLDISSEKAQEYLNMFYQGNDFLYPIYLIHGQPIDDEINLEIDEESQPISNFPVLQYILCDKSSLQEKQSRLKSGYKTVIFALSSAPLSDFDELLPAVYEIREKDVLYKKEDADKYGFIFNENSVPRVLKKAPSTHSPQLSVPSKTSTIDKTDTRSTEKTKGKDIFSNARNQKGNSSRKNKKAPLENHKEKEPLLPKEEKLSEQAKRERDDLKNIMQLEDESVSTTSVHDSEDDNLDSNNFQLEIGTEAKSAAPDEPQEIIKSVSGGKRRGKRKVKKYATTKDEEGFLVTKEEEVWESFSEDENISTGTSNVVRNKPTTVNIATKKKNTAQSKPQQKSIMSFFGKK
notes: DNA polymerase delta C-subunit Cdc27, S. pombe; prey plasmid pGAD2F-Cdc27; also called pGAD2F-Cdc27; source: yeast two-hybrid fusion, in S. cerevisiae CTY10-5d
Regarding B1, the “two-hybrid beta-galactosidase activity, % of wild-type Cdc1” value in test [1] is 100%; with Cdc1-E1 it was 1%; in the test with Cdc1-A9 it was 58%; with Cdc1-J3, less than 1%.
